Source: patent EP1801220A2 (Monsanto Technology, LLC, dated 2007)

B1: Cry3Bb.60 (60 kDa trypsin-truncated Cry3Bb, first 159 residues removed) (other)
chain: SKRSQDRIRELFSQAESHFRNSMPSFAVSKFEVLFLPTYAQAANTHLLLLKDAQVFGEEWGYSSEDVAEFYHRQLKLTQQYTDHCVNWYNVGLNGLRGSTYDAWVKFNRFRREMTLTVLDLIVLFPFYDIRLYSKGVKTELTRDIFTDPIFSLNTLQEYGPTFLSIENSIRKPHLFDYLQGIEFHTRLQPGYFGKDSFNYWSGNYVETRPSIGSSKTITSPFYGDKSTEPVQKLSFDGQKVYRTIANTDVAAWPNGKVYLGVTKVDFSQYDDQKNETSTQTYDSKRNNGHVSAQDSIDQLPPETTDEPLEKAYSHQLNYAECFLMQDRRGTIPFFTWTHRSVDFFNTIDAEKITQLPVVKAYALSSGASIIEGPGFTGGNLLFLKESSNSIAKFKVTLNSAALLQRYRVRIRYASTTNLRLFVQNSNNDFLVIYINKTMNKDDDLTYQTFDLATTNSNMGFSGDKNELIIGAESFVSNEKIYIDKIEFIPVQL
notes: Made by trypsin digestion of solubilized Cry3Bb, which cleaves after R159; The range counts on wild-type Cry3Bb; also called CryB2.60; Δ1-159

Legend:
[1] = biological target: Cry3Bb.11032 (D165G) (Bacillus thuringiensis) (UniProt Q06117); assay: cell-based or functional assay
[2] = biological target: the molecule itself; assay: SDS-PAGE of unheated samples, Coomassie stain, self-association

Molecule | initial channel conductances when the protein is artificially incorporated into the membrane [1] [fold] | binding result [2]
Cry3Bb.11032 (D165G) (from UniProt Q06117 1-652) | 16 | 
B1 |  | binds
